Results: US20150105322

How the values were obtained:
[1] = molecular target: E. coli expressed human annexin A2, P07355
[2] = molecular target: glycosylated human annexin A2-6×His expressed in Pichia pastoris
[3] = molecular target: non-N-glycosylated human annexin A2-6×His (N62A) group #1 expressed in Pichia pastoris
[4] = molecular target: non-N-glycosylated human annexin A2-6×His (N62A) group #2 expressed in Pichia pastoris
non-N-glycosylated human annexin A2-6×His (N62A) group #2 expressed in Pichia pastoris, sequence (chain, as listed by the source N62A): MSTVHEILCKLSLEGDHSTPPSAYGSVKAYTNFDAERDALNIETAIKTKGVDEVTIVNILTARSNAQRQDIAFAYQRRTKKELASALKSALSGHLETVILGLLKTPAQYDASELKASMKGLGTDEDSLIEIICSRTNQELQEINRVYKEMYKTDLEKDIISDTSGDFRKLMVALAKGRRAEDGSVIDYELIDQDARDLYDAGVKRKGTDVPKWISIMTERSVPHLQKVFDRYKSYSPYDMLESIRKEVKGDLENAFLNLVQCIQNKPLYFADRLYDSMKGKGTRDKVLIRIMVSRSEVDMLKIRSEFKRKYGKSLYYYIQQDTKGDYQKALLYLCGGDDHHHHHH

glycosylated human annexin A2-6×His expressed in Pichia pastoris, sequence (chain, as listed by the source): as the sequence (chain, as listed by the source N62A) above, with A62N counted along it
non-N-glycosylated human annexin A2-6×His (N62A) group #1 expressed in Pichia pastoris, sequence (chain, as listed by the source N62A): as the sequence (chain, as listed by the source N62A) above
E. coli expressed human annexin A2, P07355, sequence (P07355 whole entry): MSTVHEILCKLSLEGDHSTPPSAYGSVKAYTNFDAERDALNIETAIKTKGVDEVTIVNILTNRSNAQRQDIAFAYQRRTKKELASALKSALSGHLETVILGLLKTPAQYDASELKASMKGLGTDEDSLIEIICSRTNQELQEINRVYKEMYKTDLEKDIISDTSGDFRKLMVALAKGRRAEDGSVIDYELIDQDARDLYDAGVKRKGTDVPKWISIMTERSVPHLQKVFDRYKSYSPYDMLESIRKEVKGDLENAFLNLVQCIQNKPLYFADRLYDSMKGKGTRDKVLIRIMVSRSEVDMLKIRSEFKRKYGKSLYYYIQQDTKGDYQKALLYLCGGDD

B1: tissue plasminogen activator (protein)
chain: SYQVICRDEKTQMIYQQHQSWLRPVLRSNRVEYCWCNSGRAQCHSVPVKSCSEPRCFNGGTCQQALYFSDFVCQCPEGFAGKCCEIDTRATCYEDQGISYRGTWSTAESGAECTNWNSSALAQKPYSGRRPDAIRLGLGNHNYCRNPDRDSKPWCYVFKAGKYSSEFCSTPACSEGNSDCYFGNGSAYRGTHSLTESGASCLPWNSMILIGKVYTAQNPSAQALGLGKHNYCRNPDGDAKPWCHVLKNRRLTWEYCDVPSCSTCGLRQYSQPQFRIKGGLFADIASHPWQAAIFAKHRRSPGERFLCGGILISSCWILSAAHCFQERFPPHHLTVILGRTYRVVPGEEEQKFEVEKYIVHKEFDDDTYDNDIALLQLKSDSSRCAQESSVVRTVCLPPADLQLPDWTECELSGYGKHEALSPFYSERLKEAHVRLYPSSRCTSQHLLNRTVTDNMLCAGDTRSGGPQANLHDACQGDSGGPLVCLNDGRMTLVGIISWGLGCGQKDVPGVYTKVTNYLDWIRDNMRP
**Q.** For B1, which “tPA-mediated plasmin-generation (fluorogenic plasmin substrate D-Val-Leu-Lys-AMC, with N-terminal lysine plasminogen)” value (“tPA-mediated plasmin-generation” below) [1] is on record?
**A.** comparable to the E. coli expressed human annexin A2 (positive control, labeled as t1+bac-rA2)

**Q.** And the “tPA-mediated plasmin-generation” value [2]?
**A.** did not significantly enhance tPA-mediated plasmin-generation

**Q.** And the “tPA-mediated plasmin-generation” value [3]?
**A.** restored the enhancer function completely

**Q.** What about the “tPA-mediated plasmin-generation” value [4] of the same protein?
**A.** The enhancer function was partially (about 50%) restored in group #2
